{"source": "paper PMC4239648", "biological_target": "HsiC2Δ1–30, bacterial two-hybrid fusion (P. aeruginosa PAO1)", "experiment": "two-hybrid; bacterial two-hybrid (BTH): T25 and T18 fusions of B. pertussis adenylate cyclase co-transformed in E. coli DHM1; spots on MacConkey maltose and X-gal LB agar, 30 °C, at least 48 h; β-galactosidase activity in Miller units"}
{"substance": "ClpV2, full length, bacterial two-hybrid fusion (enzyme)", "values": [{"measurement": "fold reduction of binding against full-length HsiC2", "result": 10, "unit": "fold"}]}
